The values that follow come from US20220041739A1 (UNIVERSITY OF ULSTER, published 2022).

In this test the target is T1, IL-1R1 Fc fusion protein.
T1 construct: Used as immunogen and as ELISA coating antigen at 1 ug/ml; also called IL-1R1 immunogen
T1 chain: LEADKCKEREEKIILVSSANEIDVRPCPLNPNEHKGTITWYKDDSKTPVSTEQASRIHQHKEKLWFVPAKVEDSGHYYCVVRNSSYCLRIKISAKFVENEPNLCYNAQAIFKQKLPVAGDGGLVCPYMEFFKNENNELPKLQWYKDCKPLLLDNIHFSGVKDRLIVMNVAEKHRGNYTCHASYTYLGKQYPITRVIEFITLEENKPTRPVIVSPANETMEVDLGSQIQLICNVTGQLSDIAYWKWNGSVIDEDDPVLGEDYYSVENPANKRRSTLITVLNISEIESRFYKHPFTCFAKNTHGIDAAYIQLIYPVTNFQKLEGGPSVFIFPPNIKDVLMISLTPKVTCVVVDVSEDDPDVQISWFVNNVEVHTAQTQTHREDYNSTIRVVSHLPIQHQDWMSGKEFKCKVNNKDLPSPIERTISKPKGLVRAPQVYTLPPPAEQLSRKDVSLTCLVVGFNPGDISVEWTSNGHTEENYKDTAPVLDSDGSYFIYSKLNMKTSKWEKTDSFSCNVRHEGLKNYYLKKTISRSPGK
In words: ELISA of hybridoma supernatants on coated IL-1R1, with APO-A1 as negative control. As for the experimental part:
The day prior to screening, a Maxi Sorp plate was coated by adding 100 μl/well of 50 mM sodium carbonate coating buffer (pH 9.5) containing the IL-1R1 at 1 μg/ml. A separate coating solution was prepared by diluting APO-A1 in the same coating buffer at 1 μg/ml. […] This plate was incubated overnight at 4° C. in static conditions.
Eleven days after fusion, protoclones were screened by ELISA. 20× Maxi Sorp 96 well plates were coated as described herein using APO-A1 at 1 μg/ml as the negative control for specificity. The coating solution was removed and the plates were blocked as described herein. Samples were prepared by removing 160 μl of supernatant from each well of the ten fusion plates, limiting dilution plates, or 24-well plates and transferring to fresh 96 well culture plates containing 50 μl 1×PBS. After 2 hours of blocking, the blocking solution was removed, and the plates were washed 3× with PBS-T. The samples from each dilution plate were loaded onto the ELISA plates at 100 μl/well by adding 1 row from each dilution plate per 2 rows on the ELISA plates to account for specificity of the coating antigens. Two wells per ELISA were incubated with 100 μl 1×PBS as a negative control. These samples were incubated at 150 rpm for 2 hours at room temperature.
For orientation: ELISA stands for enzyme-linked immunosorbent assay.

B1: Anti-IL-1R1 monoclonal antibody produced from clone F237 5D1-1A8-2A5 (antibody, V domains shown)
VH: QIQLVQSGPELRKPGETVRISCKASGYPFTTAGLQWVQKMSGKGLKWIGWMNTQSEVPKYAEEFKGRIAFSLETAASTAYLQINNLKTEDTATYFCAKSVYFNWRYFDVWGAGTTVTVSS
VL: DIVMTQSPATLSVTPGDRVSLSCRASQSISDYLSWYQQRSHESPRLIIKYASQSISGIPSRFSGSGSGSDFTLSINSVEPEDVGVYYCQHGHSFPLTFGSGTKLELKR
notes: Mouse hybridoma antibody tested as culture supernatant; also called first antibody (to IL-1R1)
As for B1, the binding result is recorded as “binds”.
